{"source": "patent US20180057604A1", "about": "(Genentech, published 2018)", "binders": {"B1": {"name": "13C3 (antibody, V domains shown)", "VH": "QVQLQQPGAELVKPGASVKLSCKASGYTFASYWMHWVKQRPGQGLEWIGEINPINGRTNYSEKFKKKATLTVDKSSSTAYMQLSSLTSEDSAVYYCARGTRAYHYWGQGTSVTVSS", "VL": "DIQMTQSPASLSVSVGETVTITCRASDNIYSNLAWYQQKQGKSPQLLVYAATNLADGVPSRFSGSGSGTQYSLKINSLQSEDFGSYYCQHFWGTPLMFGSGTKLELK", "notes": "Mouse hybridoma antibody; also called clone 13C3"}, "B2": {"name": "16G5 (antibody, V domains shown)", "VH": "B1 VH with K13R, S17A, A30T, I54T, S61N, K63N, K66S, Y105F", "VL": "B1 VL with M4L, S7T, D27E, N53D, S63R, M97T, S100A, K107I", "notes": "Mouse hybridoma antibody; also called clone 16G5"}, "B3": {"name": "4C2 (antibody, V domains shown)", "VH": "QVQLQQPGSELVRPGASVKLSCKASGYTFTSYWMHWVKQRHGQGLEWIGNIYPGSGSTKYDEKFKSKGTLTVDTSSSTAYMHLSSLTSEDSAVYYCTRGGYDSRAWFAHWGQGTLVTVSA", "VL": "DIVLTQSPASLAVSLGQRATISCRARQSVSTSSYSFMHWYQQKPGQPPKLLIKYASIQESGVPARFSGSGSGTDFTLNILPVEEEDTATYYCQHTWEIPFTFGSGTNLEIK", "notes": "Mouse hybridoma antibody; also called clone 4C2"}, "B4": {"name": "G93A (antibody, V domains shown)", "VH": "EVQLVQSGAEVKKPGASVKVSCKASGYTFTSYWMHWVRQAPGQRLEWIGEINPTNGRTNYIEKFKSRATLTVDKSASTAYMELSSLRSEDTAVYYCARGTRAYHYWGQGTMVTVSS", "VL": "DIQMTQSPSSLSASVGDRVTITCRASDNLYSNLAWYQQKPGKSPKLLVYDATNLADGVPSRFSGSGSGTDYTLTISSLQPEDFATYYCQHFWATPLTFGQGTKVEIK", "notes": "also called 15G11.v5 G93A (CDR-L3) IgG"}, "B5": {"name": "Q89A (antibody, V domains shown)", "VH": "B4 VH", "VL": "B4 VL with Q89A, A93G", "notes": "also called 15G11.v5 Q89A (CDR-L3) IgG"}, "B6": {"name": "P95A (antibody, V domains shown)", "VH": "B4 VH", "VL": "B4 VL with A93G, P95A", "notes": "also called 15G11.v5 P95A (CDR-L3) IgG"}, "B7": {"name": "15D2 (antibody, V domains shown)", "VH": "QVQLQQSGPELVRPGVSVKISCKGSGYTVTDYAMHWVKQSHAKSLEWIGVISFYSGKTNYNQKFMGKATMTVDKSSSTAYMELARLTSEDSAIYYCARGLSGNYVMDYWGQGTSVTVSS", "VL": "DIVLTQSPASLAVSLGQRATISCRASESVDSYGNSFMHWYQQKPGQPPKLLIYRASNLESGIPARFSGSGSRTDFTLTINPVEADDVATYYCQQSNEGPPTFGGGTKLEIK", "notes": "Mouse hybridoma antibody; also called clone 15D2"}, "B8": {"name": "anti-BACE1 antibody 6266 (antibody, V domains shown)", "VH": "EVQLVQSGAEVKKPGSSVKVSCKASGGTLSGYGVSWVRQAPGQGLEWMGNIIPGFGTANYAQKFQGRVTITADESTSTAYMELSSLRSEDTAVYYCARSGGTKYGMLDVWGQGTMVTVSS", "VL": "EIVMTQSPATLSVSPGERATLSCRASQSVSSNLAWYQQKPGQAPRLLIYGASTRATGIPARFSGSGSGTEFTLTISSLQSEDFAVYYCQQLILWPPRTFGGGTKVEIK", "notes": "Fully human antibody"}, "B9": {"name": "bispecific antibody TfR^2/6266 (bispecific antibody, V domains shown)", "VH 1": "B4 VH", "VL 1": "B4 VL with W92A, A93G", "VH 2": "B8 VH", "VL 2": "B8 VL"}}, "key": {"[1]": {"biological_target": "T1, human TfR extracellular domain with N-terminal His tag (human, UniProt P02786 89-760)", "T1 construct": "Biotinylated in some assays; also called huTfR; HuTfR", "T1 sequence (P02786 89-760 G142S)": "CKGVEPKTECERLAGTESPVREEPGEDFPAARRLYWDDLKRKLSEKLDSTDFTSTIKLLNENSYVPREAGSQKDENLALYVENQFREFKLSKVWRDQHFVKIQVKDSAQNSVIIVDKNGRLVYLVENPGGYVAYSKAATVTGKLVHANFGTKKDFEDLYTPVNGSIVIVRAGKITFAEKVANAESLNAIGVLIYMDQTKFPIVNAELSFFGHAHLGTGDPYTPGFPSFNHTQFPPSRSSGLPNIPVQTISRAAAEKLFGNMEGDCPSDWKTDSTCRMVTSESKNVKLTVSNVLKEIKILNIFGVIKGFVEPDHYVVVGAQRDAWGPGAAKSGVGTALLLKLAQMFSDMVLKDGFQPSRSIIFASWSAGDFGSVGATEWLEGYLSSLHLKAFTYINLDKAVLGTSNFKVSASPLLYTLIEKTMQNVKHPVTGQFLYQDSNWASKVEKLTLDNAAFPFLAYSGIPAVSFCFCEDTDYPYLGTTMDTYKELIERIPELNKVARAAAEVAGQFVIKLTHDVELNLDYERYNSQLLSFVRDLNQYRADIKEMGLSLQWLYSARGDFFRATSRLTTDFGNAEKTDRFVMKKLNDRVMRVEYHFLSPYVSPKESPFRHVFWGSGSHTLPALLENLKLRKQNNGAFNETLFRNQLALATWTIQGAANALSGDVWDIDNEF", "assay": "ELISA"}, "[2]": {"biological_target": "T2, human TfR, full length, on cells (human, UniProt P02786 1-760)", "T2 construct": "also called human TfR transiently expressed in 293 cells; TfR on HEL cells", "assay": "FACS, 293 cells, 1 uM holo-Tf", "method": "(§1) Briefly, FACS analysis was performed using 293 cells transfected with full length human or cyno TfR using lipofectamin 2000 plus (Invitrogen) 48-72 h before FACS analysis. […] Cells were washed twice with FACS buffer, 50 μl of PE-Goat-anti-murine Fcγ (Jackson ImmunoResearch) was added to cells and they were incubated on ice for 30 min. Cells were washed with FACS buffer and resuspended in 100 μl FACS buffer for analysis."}, "[3]": {"biological_target": "T2, human TfR, full length, on cells", "assay": "FACS, 293 cells, 1 uM holo-Tf", "remark": "listed apart in the source", "method": "as §1"}, "[4]": {"biological_target": "T1, human TfR extracellular domain with …", "assay": "ELISA, IgG"}, "[5]": {"biological_target": "T3, cyno TfR extracellular domain (analogous construct to human TfR ecd) (cynomolgus monkey, UniProt Q5RDH6 87-760 (Pongo abelii entry))", "T3 construct": "also called cynoTfR ecd", "T3 chain": "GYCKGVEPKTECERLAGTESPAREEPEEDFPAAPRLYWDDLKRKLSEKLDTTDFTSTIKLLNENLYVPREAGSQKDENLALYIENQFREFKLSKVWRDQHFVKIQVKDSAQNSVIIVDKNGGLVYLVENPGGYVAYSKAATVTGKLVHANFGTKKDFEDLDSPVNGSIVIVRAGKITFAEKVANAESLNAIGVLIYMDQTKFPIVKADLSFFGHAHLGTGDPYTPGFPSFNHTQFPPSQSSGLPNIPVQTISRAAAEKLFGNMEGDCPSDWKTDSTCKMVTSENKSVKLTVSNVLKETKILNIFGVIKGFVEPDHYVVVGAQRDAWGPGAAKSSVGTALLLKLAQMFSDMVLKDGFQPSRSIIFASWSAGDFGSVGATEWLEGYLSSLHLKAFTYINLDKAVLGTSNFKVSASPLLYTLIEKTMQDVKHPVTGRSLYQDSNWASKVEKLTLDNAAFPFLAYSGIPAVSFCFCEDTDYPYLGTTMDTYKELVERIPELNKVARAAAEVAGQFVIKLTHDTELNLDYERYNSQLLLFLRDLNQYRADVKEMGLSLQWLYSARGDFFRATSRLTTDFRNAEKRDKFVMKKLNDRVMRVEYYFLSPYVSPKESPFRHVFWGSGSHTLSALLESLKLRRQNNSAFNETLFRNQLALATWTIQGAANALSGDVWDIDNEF", "assay": "ELISA, IgG"}, "[6]": {"biological_target": "T1, human TfR extracellular domain with …", "assay": "SPR SCK 1:1 fit, IgG", "method": "(§2) Antibody affinities were measured using surface plasmon resonance (“SPR”) (Biacore™, GE Healthcare). Anti-His antibody (Qiagen) was coupled onto four different flow cells of a BIACORE™ CM5 sensor chip (Biacore, Inc., Piscataway, N.J.) at between 6000 and 8000 RU. Immobilization was achieved by random coupling through amino groups using a protocol provided by the manufacturer. 10×HBS-P (Biacore, Inc., Piscataway, N.J.) was diluted in water and served as the dilution and running buffer. Purified human or cyno TfR was captured, followed by a 3-fold dilution series of IgG or Fab that was injected at a flow rate of 30 ml/min using the single cycle kinetics method. Affinity constants were determined using a simple 1:1 Langmuir binding model or using a steady state model when kₒₙ or koff was beyond the detection limit. The equilibrium dissociation constant (KD) was calculated as the ratio of association rate constant (kₒₙ) and dissociation rate constant (koff).\n(§3) These variants were screened as IgG by ELISA and SPR to identify positions important for binding to human and cyno TfR; the monovalent affinity of selected variants as Fab was also determined. […] Plates were washed with PBS/0.05% Tween 20 and blocked using Superblock blocking buffer in PBS (Thermo Scientific, Hudson, N.H.). Supernatants containing expressed IgG were diluted serially 1:5 and added to the plate for 1 h. […] Plates were washed with PBS/0.05% Tween 20 and 1:1000 diluted HRP-Goat-anti kappa (Southern Biotech) was added the plate and incubated for 1 h at room temperature. Plates were washed with PBS/0.05% Tween 20 and detected using TMB substrate (BioFX Laboratories, Owings Mills). Binding was also assessed by SPR, as described above."}, "[7]": {"biological_target": "T3, cyno TfR extracellular domain …", "assay": "SPR SCK 1:1 fit, IgG", "method": "as §2, §3"}, "[8]": {"biological_target": "T1, human TfR extracellular domain with …", "assay": "SPR steady state, IgG", "method": "as §2, §3"}, "[9]": {"biological_target": "T3, cyno TfR extracellular domain …", "assay": "SPR steady state, IgG", "method": "as §2, §3"}, "[10]": {"biological_target": "T4, BACE1 in primary mouse cortical neurons (mouse, UniProt P56818 46-501)", "T4 sequence (P56818 46-501)": "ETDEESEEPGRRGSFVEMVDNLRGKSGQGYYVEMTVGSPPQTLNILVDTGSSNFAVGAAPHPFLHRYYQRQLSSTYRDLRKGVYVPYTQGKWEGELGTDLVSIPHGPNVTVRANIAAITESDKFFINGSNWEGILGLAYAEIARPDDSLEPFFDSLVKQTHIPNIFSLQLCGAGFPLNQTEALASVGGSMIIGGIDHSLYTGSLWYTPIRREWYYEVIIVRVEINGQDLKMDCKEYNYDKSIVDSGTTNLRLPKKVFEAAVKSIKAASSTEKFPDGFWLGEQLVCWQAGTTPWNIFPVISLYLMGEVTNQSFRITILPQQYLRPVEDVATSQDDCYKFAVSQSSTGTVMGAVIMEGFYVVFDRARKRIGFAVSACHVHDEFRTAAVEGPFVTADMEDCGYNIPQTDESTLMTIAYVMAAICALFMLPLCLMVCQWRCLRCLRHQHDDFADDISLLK", "assay": "cell-based or functional assay"}, "[11]": {"biological_target": "T4, BACE1 in primary mouse cortical neurons", "assay": "cell-based or functional assay", "remark": "listed apart in the source"}, "[12]": {"biological_target": "T5, human BACE1 ECD", "T5 construct": "analyte of the Octet assay (200 nM) and enzyme of the first short substrate assay; also called human BACE1 extracellular domain", "T5 sequence (single chain, as listed by the source limits assumed)": "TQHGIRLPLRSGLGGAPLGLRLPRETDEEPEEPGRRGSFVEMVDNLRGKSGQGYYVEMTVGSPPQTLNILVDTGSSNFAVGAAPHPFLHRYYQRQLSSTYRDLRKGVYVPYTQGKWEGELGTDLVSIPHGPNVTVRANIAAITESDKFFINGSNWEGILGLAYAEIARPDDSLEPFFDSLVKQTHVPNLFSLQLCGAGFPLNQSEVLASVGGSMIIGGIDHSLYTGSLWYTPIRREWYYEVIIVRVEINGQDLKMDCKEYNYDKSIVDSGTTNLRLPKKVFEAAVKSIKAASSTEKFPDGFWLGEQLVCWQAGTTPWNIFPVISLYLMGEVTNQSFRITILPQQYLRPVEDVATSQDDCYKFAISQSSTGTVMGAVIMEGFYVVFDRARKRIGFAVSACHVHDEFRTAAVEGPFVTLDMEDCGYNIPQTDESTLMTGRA", "assay": "Octet, pH 5.0;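 note: antibodies captured on anti-human capture sensor tips, dissociation monitored in PBS with BSA buffer, kinetics fitted with a one-to-one binding model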", "method": "(§4) Anti-BACE1 antibodies were loaded onto anti-human capture (AHC) sensors (tips) followed by 60 seconds baseline in assay buffer. […] Tips were transferred to assay buffer for 5 minutes, 30 minutes, or 120 minutes depending on the off-rate, for off-rate measurement. Assay buffer was either PBS+0.1% BSA, pH 7.5; or PBS+0.1% BSA, pH 5.0. Kinetics were analyzed using a 1:1 binding model."}, "[13]": {"biological_target": "T6, murine BACE1 ECD", "T6 construct": "analyte of the Octet assay (200 nM) and enzyme of the first short substrate assay", "T6 sequence (single chain, as listed by the source limits assumed)": "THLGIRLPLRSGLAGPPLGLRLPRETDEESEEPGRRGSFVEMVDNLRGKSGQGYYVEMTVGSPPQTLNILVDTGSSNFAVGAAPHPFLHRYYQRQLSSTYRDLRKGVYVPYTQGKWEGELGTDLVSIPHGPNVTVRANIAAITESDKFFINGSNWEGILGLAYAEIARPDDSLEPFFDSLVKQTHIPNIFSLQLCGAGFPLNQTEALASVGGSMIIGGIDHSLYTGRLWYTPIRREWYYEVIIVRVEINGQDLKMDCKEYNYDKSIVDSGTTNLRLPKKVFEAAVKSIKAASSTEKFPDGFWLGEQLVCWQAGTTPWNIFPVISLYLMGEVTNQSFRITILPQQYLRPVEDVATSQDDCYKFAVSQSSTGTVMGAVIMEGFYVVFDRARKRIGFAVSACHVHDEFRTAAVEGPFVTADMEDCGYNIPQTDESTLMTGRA", "assay": "Octet, pH 5.0", "method": "as §4"}, "[14]": {"biological_target": "T5, human BACE1 ECD", "assay": "Octet, pH 7.5;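 note: antibodies captured on anti-human capture sensor tips, dissociation monitored in PBS with BSA, Kd obtained from kinetic fit to a one-to-one binding model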", "method": "as §4"}, "[15]": {"biological_target": "T6, murine BACE1 ECD", "assay": "Octet, pH 7.5", "method": "as §4"}, "[16]": {"biological_target": "T7, human BACE1 (R&D Systems) (human, UniProt P56817)", "T7 construct": "recombinant, commercial (R&D Systems)", "T7 sequence (P56817 22-457 limits assumed)": "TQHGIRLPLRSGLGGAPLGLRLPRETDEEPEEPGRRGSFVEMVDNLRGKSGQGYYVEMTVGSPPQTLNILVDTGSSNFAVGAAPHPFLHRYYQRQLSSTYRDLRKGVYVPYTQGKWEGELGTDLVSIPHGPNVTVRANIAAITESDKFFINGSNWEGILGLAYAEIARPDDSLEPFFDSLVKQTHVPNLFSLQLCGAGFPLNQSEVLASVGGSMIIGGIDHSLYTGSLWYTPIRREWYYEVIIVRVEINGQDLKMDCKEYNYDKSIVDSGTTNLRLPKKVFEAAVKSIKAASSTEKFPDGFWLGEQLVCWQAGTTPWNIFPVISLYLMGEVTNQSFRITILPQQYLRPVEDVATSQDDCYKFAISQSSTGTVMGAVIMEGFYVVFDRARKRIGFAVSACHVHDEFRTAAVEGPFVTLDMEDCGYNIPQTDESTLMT", "assay": "SPR (Biacore)", "method": "Binding affinities of certain anti-BACE1 IgGs were measured by surface plasmon resonance (SRP) using a BIAcore™-T100 instrument. […] Association rates (kon) and dissociation rates (koff) were calculated using a simple one-to-one Langmuir binding model (BIAcore Evaluation Software version 3.2). The equilibrium dissociation constant (KD) was calculated as the ratio koff/kon."}}, "note": "Changes are numbered by the printed parent chain. Names may count otherwise. Where two headings read alike, the source gives them in different places.", "data": [{"binder": "B1", "values": [{"measurement": "binding result", "setting": "[1]", "value": "binds"}, {"measurement": "binding result", "setting": "[2]", "value": "binds"}]}, {"binder": "B2", "values": [{"measurement": "binding result", "setting": "[1]", "value": "binds"}, {"measurement": "binding result", "setting": "[2]", "value": "binds"}]}, {"binder": "B3", "values": [{"measurement": "binding result", "setting": "[1]", "value": "binds"}, {"measurement": "binding result", "setting": "[3]", "value": "binds"}]}, {"binder": "B4", "values": [{"measurement": "EC50", "setting": "[4]", "value": 0.0145, "unit": "µg/mL"}, {"measurement": "EC50", "setting": "[5]", "value": 0.0508, "unit": "µg/mL"}, {"measurement": "Kd", "setting": "[6]", "value": 40, "unit": "nM"}, {"measurement": "Kd", "setting": "[7]", "value": 61, "unit": "nM"}, {"measurement": "Kd", "setting": "[8]", "value": 150, "unit": "nM"}, {"measurement": "Kd", "setting": "[9]", "value": 412, "unit": "nM"}]}, {"binder": "B5", "values": [{"measurement": "EC50", "setting": "[4]", "value": 0.03, "unit": "µg/mL"}, {"measurement": "EC50", "setting": "[5]", "value": 0.506, "unit": "µg/mL"}, {"measurement": "Kd", "setting": "[6]", "value": 125, "unit": "nM"}, {"measurement": "Kd", "setting": "[7]", "value": 268, "unit": "nM"}, {"measurement": "Kd", "setting": "[8]", "value": 212, "unit": "nM"}, {"measurement": "Kd", "setting": "[9]", "value": 591, "unit": "nM"}]}, {"binder": "B6", "values": [{"measurement": "EC50", "setting": "[4]", "value": 0.0106, "unit": "µg/mL"}, {"measurement": "EC50", "setting": "[5]", "value": 0.0406, "unit": "µg/mL"}, {"measurement": "Kd", "setting": "[6]", "value": 29, "unit": "nM"}, {"measurement": "Kd", "setting": "[7]", "value": 57, "unit": "nM"}, {"measurement": "Kd", "setting": "[8]", "value": 94, "unit": "nM"}, {"measurement": "Kd", "setting": "[9]", "value": 258, "unit": "nM"}]}, {"binder": "B7", "values": [{"measurement": "binding result", "setting": "[1]", "value": "binds"}, {"measurement": "binding result", "setting": "[3]", "value": "binds"}]}, {"binder": "B8", "values": [{"measurement": "IC50, inhibition of Abeta x-40 production in primary mouse cortical neurons", "setting": "[10]", "value": 1.7, "unit": "nM"}, {"measurement": "IC50, Abeta x-40 in mouse cortical neurons", "setting": "[11]", "value": 1.66, "unit": "nM"}, {"measurement": "maximal % inhibition of Abeta x-40", "setting": "[11]", "value": 87, "unit": "%"}, {"measurement": "Kd", "setting": "[12]", "value": "< 0.24", "unit": "nM"}, {"measurement": "Kd", "setting": "[13]", "value": 0.32, "unit": "nM"}, {"measurement": "Kd", "setting": "[14]", "value": "< 0.3", "unit": "nM"}, {"measurement": "Kd", "setting": "[15]", "value": "< 0.31", "unit": "nM"}, {"measurement": "Kd", "setting": "[16]", "value": 1.12, "unit": "nM"}]}, {"binder": "B9", "values": [{"measurement": "IC50, inhibition of Abeta x-40 production in primary mouse cortical neurons", "setting": "[10]", "value": 1.7, "unit": "nM"}]}]}
